Measured values taken from US20060292151A1, “L-SIGN polymorphisms and methods involving use of same” (priority 2004, published 2006).

Tests used:
[1] = target: L-SIGN-7 (human) (UniProt Q9H2X3); assay: HCVpp supernatant on HeLa-SIGN transfectants, cell-bound p24 by ELISA
[2] = target: L-SIGN-9 (human); assay: flow cytometry, E2 at 5 µg/ml; lower end tied to L-SIGN-9 by the words L-SIGN-9 cells showing the lowest levels of binding
[3] = target: HeLa-SIGN transfectants (L-SIGN isoforms tested); assay: flow cytometry, E2 at 5 µg/ml; upper end not tied to an isoform
[4] = target: L-SIGN-9 (human); assay: flow cytometry on HeLa-SIGN transfectants

Chain of L-SIGN-7 (human) (Q9H2X3 whole entry): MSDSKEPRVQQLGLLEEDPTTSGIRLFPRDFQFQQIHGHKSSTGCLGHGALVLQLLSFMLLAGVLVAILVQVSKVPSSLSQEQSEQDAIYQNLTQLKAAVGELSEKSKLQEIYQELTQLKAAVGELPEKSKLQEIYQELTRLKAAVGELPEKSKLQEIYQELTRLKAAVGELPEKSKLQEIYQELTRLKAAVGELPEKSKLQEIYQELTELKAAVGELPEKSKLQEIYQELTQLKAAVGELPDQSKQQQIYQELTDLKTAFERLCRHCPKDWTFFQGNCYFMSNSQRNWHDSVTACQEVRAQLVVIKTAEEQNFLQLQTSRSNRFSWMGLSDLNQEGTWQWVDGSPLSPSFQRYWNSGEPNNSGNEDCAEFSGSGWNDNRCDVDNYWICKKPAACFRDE

Substance	fold higher binding than to the other isoforms [1] [fold]	fold above background binding to parental HeLa [2] [fold]	specific binding, percent of cells [2]	fold above background binding to parental HeLa [3] [fold]	specific binding, percent of cells [3]	fold lower binding than the other isoforms [4] [fold]
HCV pseudovirus particles (HCVpp) (from UniProt P27958 192-383; P27958 384-746) (other; other documents disagree on this pair)	2	–	–	–	–	–
soluble E2 glycoprotein	–	9	35 % of cells	25	93 % of cells	2 to 3
